Measurements published in publication doi:10.1101/749432 (2019).

B1: synthetic binder (cys2 variant of design 469) (designed binder)
chain: NNWEQQKKNIEDDLDRYKKRAEELRKEAEKARKEARKTEDPTEEAKKEWEKRCKELEERARKLEDEAKDRVNDLFDSNFFQVIYSGDNDEEEWKKEKDRAEKEIEEWFKRIKEKCEEIKKRLEQ
modifications: biotin on the BAP tag (BirA)
B2: endothelial protein C receptor (EPCR), residues 16 to 210, biotinylated on the BAP tag (receptor)
chain: FCSQDASDGLQRLHMLQISYFRDPYHVWYQGNASLGGHLTHVLEGPDTNTTIIQLQPLQEPESWARTQSGLQSYLLQFHGLVRLVHQERTLAFPLTIRCFLGCELPPEGSRAHVFFEVAVNGSSFVSFRPERALWQADTQVTSGVVTFTLQQLNAYNRTRYELREFLEDTCVQYVQKHISAENTKGSQTSRSYTS

How the values were obtained:
[1] = target: B2; test: SPR
[2] = target: HB3var03 CIDRα1.4 domain (E. coli, refolded) (Plasmodium falciparum); test: SPR; wild type, data from ref. 8

Binder | koff [1] [s⁻¹] | Kd [2] [nM] | koff [2] [s⁻¹]
B1 | 0.000131 |  | 
B2 |  | 0.4 | 0.000197
